Laboratory results reported in paper PMC5693252.
Like-named read-outs stand apart in the source and are kept apart here.

Columns and labels:
Assay in all cases: native MS
[1] = molecular target: protein kinase A regulatory type II (RII) subunit (UniProt P12367)
[2] = molecular target: AKAP79(297-427) (UniProt P24588)
[3] = molecular target: protein kinase A regulatory type II (RII) subunit (UniProt P12367); remark: listed apart in the source

UniProt P24588, sequence (P24588 297-427): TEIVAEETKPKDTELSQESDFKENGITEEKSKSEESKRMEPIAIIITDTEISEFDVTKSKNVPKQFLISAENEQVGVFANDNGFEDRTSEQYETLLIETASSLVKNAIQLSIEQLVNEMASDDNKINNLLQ

protein kinase A regulatory type II (RII) subunit (from UniProt P12367 1-401) (natural protein)
2: stoichiometry N (RII chains in the oligomer) [1] | stoichiometry N (RII chains per AKAP79(297-427)) [2] | stoichiometry N (RII chains in the oligomer) [3]
